Data as given in the Human Domainome abundance scans (Beltran et al. 2025).
± gives the uncertainty stated by the source.

B1: Intersectin-1, residues 1156 to 1213; numbered along this chain, Q15811 (parent)
chain: AVCQVIGMYDYTAQNDDELAFNKGQIINVLNKEDPDWWKGEVNGQVGLFPSNYVKLTT

Variants of: B1
Experiment: abundance fitness (aPCA) (normalised: wild type 0, dead -1); higher = more abundant; growth selection in yeast, the domain comes from the species named
Settings: Homo sapiens

In order of falling abundance fitness:
1. AVCQVIGMYDYTAQNDDELAFNKGQIINVLNKEDPDWWKGEVNGNVGLFPSNYVKLTT [Q45N]  0.109 ± 0.16
2. AVCQVIGMYDYTAQNDDELAFNKGQIINVLNKEDPDWWKGEVNGKVGLFPSNYVKLTT [Q45K]  0.084 ± 0.14
3. AVCQVIGMYDYTAQNDDELAFNKGQIINVLNKEDPDWWKGEVNGDVGLFPSNYVKLTT [Q45D]  0.075 ± 0.17
4. AVCQVIGMYDYTAQNDDELAFNKGQIINVLNKEDPDWWKGEVNGAVGLFPSNYVKLTT [Q45A]  0.016 ± 0.09
5. AVCQVIGMYDYTAQNDDELAFNKGQIINVLNKEDPDWWKGEVNGVVGLFPSNYVKLTT [Q45V]  0.008 ± 0.084
6. AVCQVIGMYDYTAQNDDELAFNKGQIINVLNKEDPDWWKGEVNGMVGLFPSNYVKLTT [Q45M]  -0.023 ± 0.13
7. AVCQVIGMYDYTAQNDDELAFNKGQIINVLNKEDPDWWKGEVNGCVGLFPSNYVKLTT [Q45C]  -0.03 ± 0.15
8. AVCQVIGMYDYTAQNDDELAFNKGQIINVLNKEDPDWWKGEVNGRVGLFPSNYVKLTT [Q45R]  -0.043 ± 0.089
9. AVCQVIGMYDYTAQNDDELAFNKGQIINVLNKEDPDWWKGEVNGIVGLFPSNYVKLTT [Q45I]  -0.1 ± 0.13
10. AVCQVIGMYDYTAQNDDELAFNKGQIINVLNKEDPDWWKGEVNGEVGLFPSNYVKLTT [Q45E]  -0.149 ± 0.13
11. AVCQVIGMYDYTAQNDDELAFNKGQIINVLNKEDPDWWKGEVNGTVGLFPSNYVKLTT [Q45T]  -0.169 ± 0.13
12. AVCQVIGMYDYTAQNDDELAFNKGQIINVLNKEDPDWWKGEVEGQVGLFPSNYVKLTT [N43E]  -0.189 ± 0.12
13. AVCQVIGMYDYTAQNDDELAFNKGQIINVLNKEDPDWWKGEVNGSVGLFPSNYVKLTT [Q45S]  -0.198 ± 0.1
14. AVCQVIGMYDYTAQNDDELAFNKGQIINVLNKEDPDWWKGEVNGLVGLFPSNYVKLTT [Q45L]  -0.28 ± 0.1
15. AVCQVIGMYDYTAQNDDELAFNKGQIINVLNKEDPDWWKGEVSGQVGLFPSNYVKLTT [N43S]  -0.294 ± 0.12
16. AVCQVIGMYDYTAQNDDELAFNKGQIINVLNKEDPDWWKGEVNGFVGLFPSNYVKLTT [Q45F]  -0.387 ± 0.17
17. AVCQVIGMYDYTAQNDDELAFNKGQIINVLNKEDPDWWKGEVNGHVGLFPSNYVKLTT [Q45H]  -0.398 ± 0.22
18. AVCQVIGMYDYTAQNDDELAFNKGQIINVLNKEDPDWWKGEVNGYVGLFPSNYVKLTT [Q45Y]  -0.411 ± 0.16
19. AVCQVIGMYDYTAQNDDELAFNKGQIINVLNKEDPDWWKGEVRGQVGLFPSNYVKLTT [N43R]  -0.436 ± 0.1
20. AVCQVIGMYDYTAQNDDELAFNKGQIINVLNKEDPDWWKGEVNGWVGLFPSNYVKLTT [Q45W]  -0.537 ± 0.14
21. AVCQVIGMYDYTAQNDDELAFNKGQIINVLNKEDPDWWKGEVMGQVGLFPSNYVKLTT [N43M]  -0.56 ± 0.13
22. AVCQVIGMYDYTAQNDDELAFNKGQIINVLNKEDPDWWKGEVNGQVKLFPSNYVKLTT [G47K]  -0.582 ± 0.16
23. AVCQVIGMYDYTAQNDDELAFNKGQIINVLNKEDPDWWKGEVNGQVQLFPSNYVKLTT [G47Q]  -0.6 ± 0.24
24. AVCQVIGMYDYTAQNDDELAFNKGQIINVLNKEDPDWWKGEVNGQVNLFPSNYVKLTT [G47N]  -0.651 ± 0.24
25. AVCQVIGMYDYTAQNDDELAFNKGQIINVLNKEDPDWWKGEVNGGVGLFPSNYVKLTT [Q45G]  -0.662 ± 0.11
26. AVCQVIGMYDYTAQNDDELAFNKGQIINVLNKEDPDWWKGEVYGQVGLFPSNYVKLTT [N43Y]  -0.734 ± 0.16
27. AVCQVIGMYDYTAQNDDELAFNKGQIINVLNKEDPDWWKGEVPGQVGLFPSNYVKLTT [N43P]  -0.736 ± 0.19
28. AVCQVIGMYDYTAQNDDELAFNKGQIINVLNKEDPDWWKGEVNGQVALFPSNYVKLTT [G47A]  -0.755 ± 0.12
29. AVCQVIGMYDYTAQNDDELAFNKGQIINVLNKEDPDWWKGEVNGPVGLFPSNYVKLTT [Q45P]  -0.765 ± 0.17
30. AVCQVIGMYDYTAQNDDELAFNKGQIINVLNKEDPDWWKGEVNGQVRLFPSNYVKLTT [G47R]  -0.786 ± 0.098
31. AVCQVIGMYDYTAQNDDELAFNKGQIINVLNKEDPDWWKGEVNGQVVLFPSNYVKLTT [G47V]  -0.796 ± 0.11
32. AVCQVIGMYDYTAQNDDELAFNKGQIINVLNKEDPDWWKGEVNGQVWLFPSNYVKLTT [G47W]  -0.802 ± 0.16
33. AVCQVIGMYDYTAQNDDELAFNKGQIINVLNKEDPDWWKGEVNGQVSLFPSNYVKLTT [G47S]  -0.828 ± 0.12
34. AVCQVIGMYDYTAQNDDELAFNKGQIINVLNKEDPDWWKGEVNGQVDLFPSNYVKLTT [G47D]  -0.833 ± 0.14
35. AVCQVIGMYDYTAQNDDELAFNKGQIINVLNKEDPDWWKGEVNGQVILFPSNYVKLTT [G47I]  -0.846 ± 0.17
36. AVCQVIGMYDYTAQNDDELAFNKGQIINVLNKEDPDWWKGEVTGQVGLFPSNYVKLTT [N43T]  -0.85 ± 0.16
37. AVCQVIGMYDYTAQNDDELAFNKGQIINVLNKEDPDWWKGEVNGQVELFPSNYVKLTT [G47E]  -0.853 ± 0.15
38. AVCQVIGMYDYTAQNDDELAFNKGQIINVLNKEDPDWWKGEVNGQVPLFPSNYVKLTT [G47P]  -0.867 ± 0.18
39. AVCQVIGMYDYTAQNDDELAFNKGQIINVLNKEDPDWWKGEVNGQVLLFPSNYVKLTT [G47L]  -0.881 ± 0.13
40. AVCQVIGMYDYTAQNDDELAFNKGQIINVLNKEDPDWWKGEVNGQVYLFPSNYVKLTT [G47Y]  -0.908 ± 0.25
41. AVCQVIGMYDYTAQNDDELAFNKGQIINVLNKEDPDWWKGEVNGQVTLFPSNYVKLTT [G47T]  -0.941 ± 0.18
42. AVCQVIGMYDYTAQNDDELAFNKGQIINVLNKEDPDWWKGEVNGQVHLFPSNYVKLTT [G47H]  -0.943 ± 0.34
43. AVCQVIGMYDYTAQNDDELAFNKGQIINVLNKEDPDWWKGEVNGQVCLFPSNYVKLTT [G47C]  -0.974 ± 0.2
44. AVCQVIGMYDYTAQNDDELAFNKGQIINVLNKEDPDWWKGEVNGQVFLFPSNYVKLTT [G47F]  -1.01 ± 0.24
45. AVCQVIGMYDYTAQNDDELAFNKGQIINVLNKEDPDWWKGEVWGQVGLFPSNYVKLTT [N43W]  -1.06 ± 0.29
